This is an account of results in PMC11472164.

Holding throughout (experiment): EMSA
One data set has as its target T1, trFANCM-deltaHel2i (UniProt Q8IYD8 82-647, del298-443).
T1 sequence: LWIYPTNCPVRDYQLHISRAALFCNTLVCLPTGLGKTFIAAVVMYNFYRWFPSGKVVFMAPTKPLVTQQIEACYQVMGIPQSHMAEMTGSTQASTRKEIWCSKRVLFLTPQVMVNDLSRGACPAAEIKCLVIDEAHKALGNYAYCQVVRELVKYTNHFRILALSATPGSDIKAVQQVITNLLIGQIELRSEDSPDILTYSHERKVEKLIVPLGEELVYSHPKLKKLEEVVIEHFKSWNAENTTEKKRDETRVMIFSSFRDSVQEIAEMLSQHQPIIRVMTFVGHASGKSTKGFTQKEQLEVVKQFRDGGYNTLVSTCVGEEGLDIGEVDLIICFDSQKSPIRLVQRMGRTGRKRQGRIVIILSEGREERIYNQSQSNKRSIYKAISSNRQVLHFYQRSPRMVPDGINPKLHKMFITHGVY

A further data set concerns the target FANCMc-deltaHel2i (UniProt Q8IYD8;Q8N2Z9;A8MT69;Q9BTP7 1-297+444-2048;1-138;1-81;1-215, internal_change).
For data set [1], the target named is T2, trFANCM (translocase domain) (UniProt Q8IYD8 82-647).
T2 sequence: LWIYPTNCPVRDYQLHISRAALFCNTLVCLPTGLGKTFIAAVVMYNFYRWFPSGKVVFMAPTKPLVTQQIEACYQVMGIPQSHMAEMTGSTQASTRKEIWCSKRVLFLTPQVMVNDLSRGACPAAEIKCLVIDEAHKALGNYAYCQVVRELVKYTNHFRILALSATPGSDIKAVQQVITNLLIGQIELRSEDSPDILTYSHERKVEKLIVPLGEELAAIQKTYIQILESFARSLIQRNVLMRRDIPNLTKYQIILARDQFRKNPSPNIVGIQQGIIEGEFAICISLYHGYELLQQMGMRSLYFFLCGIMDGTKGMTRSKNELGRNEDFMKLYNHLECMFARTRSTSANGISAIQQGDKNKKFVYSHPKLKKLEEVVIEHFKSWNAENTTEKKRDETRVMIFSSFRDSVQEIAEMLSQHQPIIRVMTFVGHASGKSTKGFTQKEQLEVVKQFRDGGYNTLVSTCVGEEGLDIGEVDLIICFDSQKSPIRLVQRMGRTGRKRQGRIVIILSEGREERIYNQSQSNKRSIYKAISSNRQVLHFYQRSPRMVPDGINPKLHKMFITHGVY

Data set [2] concerns the target FANCMc (full-length FANCM complex) (UniProt Q8IYD8;Q8N2Z9;A8MT69;Q9BTP7 1-2048;1-138;1-81;1-215).

B1: 30 bp static (non-migratable) Holliday junction, X0s1-4, IRDye700 (structured_DNA)
DNA 1: TACCAGTGCCTTGCTAGGACATCTTTGCCCAC
DNA 2: GTGGGCAAAGATGTCCATCTGTTGTAATCGTC
DNA 3: GACGATTACAACAGATCATGGAGCTGTCTAGA
DNA 4: TCTAGACAGCTCCATGTAGCAAGGCACTGGTA
For the molecule B1, the binding signal with trFANCM-deltaHel2i was more than 60 fold reduction vs trFANCM. The binding result (with FANCMc-deltaHel2i; in data set [1]; in data set [2]) was “binds” each time.
